The source of these data is patent US20250027068.

B1: PRT-42 (protein)
chain: MANQEIRYSEVTPYHVTSVWTKGVTPPANFTQGEDVFHAPYVANQGWYDITKTFNGKDDLLCGAATAGNMLHWWFDQNKDQIDRYLEEHPEKQKINFNGEQMFDVKEAIDTKNDQLDSKLFEYFKEKAFPYLSTKHLGVFPDLVIDMFINGYRLSLTNHGPTPVKEGSKDPRGGFFDAVFTRGDQSKLLTSRHDFKEKNLKEISDLIKKELTEGKALGLSHTYANVRINHVINLWGADFDSNGNLKAIYVTDSDSNASIGMKKYFVGVNSAGKVAISAKEIKEDNIGAQVLGLFTLSTGQDSWNQTN
B2: PRT-47 (protein)
chain: MANQEIRYSEVTPYHVTSVWTKGVTPPANFTQGEDVFHAPYVANQGWYDINKTFNGGDDLLCGAATAGNMLHWWFDQNKDQIDRYLKEHPEKAKINFNGEQMFDVKEAIDTKNDQTNSKLFEYFKEKAFPYLSTKHLGVFPDLVLDMFINGYRLSLTNHGPTPVKEGSKDPRGGFFDAVFTRGDQSKLLTSRHDFKEKNLKEISDLIKKELTEGKALGLSHTYANVRINHVINLWGADFDSNGNLKAIYVTDSDSNASVGMKKYFVGVNSAGKVAISAKEIKEDNIGAQVLGLFTLSTGQDSWNQTN
B3: PRT-44 (protein)
chain: MANQEIRYSEVTPYHVTSVWTKGVTPPANFTQGEDVFHAPYVANQGWYDITKTFNGGDDLLCGAATAGNMLHWWFDQNKDQIDRYLEEHPEKQKINFNGEQMFDVKEAIDTKNSQTDSKLFEYFKEKAFPYLSTKHLGVFPDLVLDMFINGYRLSLTNHGPTPVKEGSKDPRGGFFDDVFTRGDQSKLLTSRHDFKEKNLKEISDLIKKELTEGKALGLSHTYANVRINHVINLWGADFDSNGNLKAIYVTDSDSNASIGMKKYFVGVNSAGKVAISAKEIKEDNIGAQVLGLFTLSTGQDSWNQTN
B4: PRT-46 (protein)
chain: MANQEIRYSEVTPYHVTSVWTKGVTPPANFTQGEDVFHAPYVANQGWYDITKTFNGKDDLLCGAATAGNMLHWWFDQNKDQIDRYLEEHPEKAKINFNGEQMFDVKEAIDTKNDQLDSKLFEYFKEKAFPYLSTKHLGVFPDLVLDMFINGYRLSLTNHGPTPVKEGSKDPRGGFFDAVFTRGDQSKLLTSRHDFKEKNLKEISDLIKKELTEGKALGLSHTYANVRINHVINLWGADFDSNGNLKAIYVTDSDSNASIGMKRYFVGVNSAGKVAISAKEIKEDNIGAQVLGLFTLSTGQDSWNQTN
B5: PRT-49 (protein)
chain: MANQEIRYSEVTPYHVTSVWTKGVTPPANFTQGEDVFHAPYVANQGWYDITKTFNGKDDLLCGAATAGNMLHWWFDQNKDYIDRYLEEHPEKAKINFNGEQMFDVKEAIDTKNDQTDSKLFEYFKEKAFPYLSTKHLGVFPDHVIDMFINGYRLSLTNHGPTPVKEGSKDPRGGFFDDVFGRGDQSKLLTSRHDFKEKNLKEISDLIKKELTEGKALGLSHTYANVRINHVINLWGADFDSNGNLKAIYVTDSDSNASVGMKKYFVGVNSAGKVAISAKEIKEDNIGAQVLGLFTLSTGQDSWNQTN
B6: PRT-45 (protein)
chain: MANQEIRYSEVTPYHVTSVWTKGVTPPANFTQGEDVFHAPYVANQGWYDITKTFNGGDDLLCGAATAGNMLHWWFDQNKEQIDRYLEEHPEKQKINFNGEQMFDVKEAIDTKNSQTDSKLFEYFKEKAFPYLSTKHLGVFPDLVLDMFINGYRLSLTNHGPTPVKEGSKDPRGGIFDAVFTRGDQSKLLTSRHDFKEKNLEEISDLIKKELTEGKALGLSHTYANVRINHVINLWGADFDSNGNLKAIYVTDSDSNASIGMKKYFVGVNSAGKVAISAKEIKEDNIGAQVLGLFTLSTGQDSWNQTN
B7: PRT-43 (protein)
chain: MANQEIRYSEVTPYHVTSVWTKGVTPPANFTQGEDVFHAPYVANQGWYDITKTFNGKDDLLCGAATAGNMLHWWFDQNKDQIDRYLEEHPEKQKINFNGEQMFDVKEAIDTKNDQTDSKLFEYFKEKAFPYLSTKHLGVFPDLVIDMFINGYRLSLTNHGPTPVKEGSKDPRGGIFDAVFTRGDQSKLLTSRHDLKEKNLKEISDLIKKELTEGKALGLSHTYANVRINHVINLWGADFDSNGNLKAIYVTDSDSNASIGMKKYFVGVNSAGKVAISAKEIKEDNIGAQVLGLFTLSTGQDSWNQTN
B8: PRT-569 (protein)
chain: MANQEIRYSKATPSHITSVWTKGVTPPEQFIYNEDVLHAPYIANQGWYDITKTFNGKDDLLCGAATAGNMLHWWFDQNKEQIENYLKKHPEKQKINFNGEQMFDVKEAIDTKDSQTNSALFSYFKDKAFPYLSTKHLGVFPDHVIDMFINGYRLSLTNHGPTPVKEQTKDPRGGIFDAVFTRGDQSKLLTSRHDFKEKTLNEISQLIKQELTEGKALGLSHTYANVRINHVINLWGADFNAEGNLEAIYVTDSDSNASIGMKKYYVGVNSAGKVAISAKEIEGDNIGAQVLGLFTLSTGQDIWQQTNLEHHHHHH
B9: PRT-593 (protein)
chain: MANQEIRYSEETPSTITSVWTKGVTPPTDFIQNEDVLHAPYIANQGWYDITKTFNGKDDLLCGAATAGNMLHWWFDQNKEQIENYLKKHPEKQKINFNGEQMFDVKEAIDTKDHQTDSALFEYFKDKAFPYLSTKHLGVFPDHVIDMFINGYRLSLTNHGPTPVKRGTKDPRGGIFDAVFTRGDQSKLLTSRHDFKEKTLNEISDLIKQELTEGKALGLSHTYANVRINHVINLWGADFNAEGNLEAIYVTDSDSNASIGMKKYYVGVNSAGKVAISAKEIEGDNIGAQVLGLFTLSTGQDIWNQTNLEHHHHHH
B10: PRT-591 (protein)
chain: MANQEIRYSEETPSTITSVWTKGVTPPTDFIQNEDVLHAPYIANQGWYDITKTFNGKDDLLCGAATAGNMLHWWFDQNKEQIKNYLKKHPEKQKINFNGEQMFDVKEAIDTKDSQTDSALFEYFKDKAFPYLSTKHLGVFPDHVIDMFINGYRLSLTNHGPTPVKRGTKDPRGGIFDAVFTRGDQSKLLTSRHDFKEKTLNEISDLIKQELTEGKALGLSHTYANVRINHVINLWGADFNAEGNLEAIYVTDSDSNASIGMKKYYVGVNSAGKVAISAKEIEGDNIGAQVLGLFTLSTGQDIWNQTNLEHHHHHH
B11: PRT-48 (protein)
chain: MANQEIRYSEVTPYHVTSVWTKGVTPPANFTQGEDVFHAPYKANQGWYDINKTFNGGDDLLCGAATAGNMLHWWFDQNKDYIDRYLEEHPEKQKINFNGEQMFDVKEAIDTKNNQTDSKLFEYFKEKAFPYLSTKHLGVFPDRVIDMFINGYRLSLTNHGPTPVKEGSKDPRGGFFDDVFTRGDQSKLLTSRHDFKEKNLKEISDLIKKELKEGKALGLSHTYANVRINHVINLWGADFDSNGNLKAIYVTDSDSNASVGMKKYRVGVNSAGKVAISAKEIKEDNIGAQVLGLFTLSTGQDSWNQTN
B12: PRT-535 (protein)
chain: MANQEIRYSGDSEWANKKVWVYGITPPEEKAWFYSTYYLPWKKEYGWYDCNKRNPTADGMMCWAATASNLMHWWIAQNKEYIDLYGDKYKGPDKINFNGEQMFDVKEYIDPLDKPQESDIFQCFIDKAFADLSTKHEAGKGDEGINWFIHGIIPSYPAHGPTPVKLRYPYNPAGYFKDVFPRGDGVVLLGNNGDFKELGKERFNETIKDALANKKGIGLSIGPVNVRSSHVVTMWGAEFDENGDVSYIYMADNNDRWGVGCIRYQIVYVEGGTYTCYKTEIIGSDRPIPINRLVTLELGEEYWKQTNLEHHHHHH
B13: PRT-537 (protein)
chain: MANQEIRYSSDSEWANKKVWVYGITPPEEGAWFYSTYYLPWKKEYGWYDCNKRNPTADGMMCWAASASNLLHWWIAQNKEYIDLYGDKYKGPDKINFNGEQMFDVKEYIDPLDKPQESDIFQCFIDKSFADLSTKHEAGKGDAGINWFIHGIIPSSPAHGPTPVKLRYPYNPAGYFKDVFPRGDGVVLLGNNGDFKELGKERFNETIKDALANKKGIGLSIGPVNVRSSHVVTIWGAEFDENGDVSYIYMADNNDRWGVGCIRYQIVYEEGGTYTCYKTEIIPSDRPIPINRLVTLELGEEYWKQTNLEHHHHHH

The target of this data set is pooled human IgG.
Regarding B1, the Enzyme Activity Endpoint Assay: Fab′2 amounted to 0 ng/µL, the Enzyme Activity Endpoint Assay: Fc was determined as 54 ng/µL, the Enzyme Activity Endpoint Assay: IgG was determined as 26 ng/µL and the Enzyme Activity Endpoint Assay: scIgG came out at 53 ng/µL.
B2 returned an Enzyme Activity Endpoint Assay: Fab′2 of 0 ng/µL, an Enzyme Activity Endpoint Assay: Fc of 5 ng/µL, an Enzyme Activity Endpoint Assay: IgG of 132 ng/µL and an Enzyme Activity Endpoint Assay: scIgG of 0 ng/µL.
As for B3, the Enzyme Activity Endpoint Assay: Fab′2 came to 3 ng/µL, the Enzyme Activity Endpoint Assay: Fc is 78 ng/µL, the Enzyme Activity Endpoint Assay: IgG turned out to be 14 ng/µL and the Enzyme Activity Endpoint Assay: scIgG is 60 ng/µL.
On to B4, for which the Enzyme Activity Endpoint Assay: Fab′2 is 20 ng/µL, the Enzyme Activity Endpoint Assay: Fc turned out to be 101 ng/µL, the Enzyme Activity Endpoint Assay: IgG is 15 ng/µL and the Enzyme Activity Endpoint Assay: scIgG came to 39 ng/µL.
In turn, B5 gave an Enzyme Activity Endpoint Assay: Fab′2 of 30 ng/µL, an Enzyme Activity Endpoint Assay: Fc of 96 ng/µL, an Enzyme Activity Endpoint Assay: IgG of 18 ng/µL and an Enzyme Activity Endpoint Assay: scIgG of 40 ng/µL.
The corresponding values for B6 are 3 ng/µL, 76 ng/µL, 8 ng/µL and 67 ng/µL.
B7 displayed an Enzyme Activity Endpoint Assay: Fab′2 of 23 ng/µL, an Enzyme Activity Endpoint Assay: Fc of 89 ng/µL, an Enzyme Activity Endpoint Assay: IgG of 13 ng/µL and an Enzyme Activity Endpoint Assay: scIgG of 32 ng/µL.
Take B8: the Enzyme Activity Endpoint Assay: Fab′2 is 723 ng/µL, the Enzyme Activity Endpoint Assay: Fc came to 294 ng/µL, the Enzyme Activity Endpoint Assay: IgG was 0 ng/µL and the Enzyme Activity Endpoint Assay: scIgG came out at 0 ng/µL.
For the protein B9, the Enzyme Activity Endpoint Assay: Fab′2 came out at 797 ng/µL, the Enzyme Activity Endpoint Assay: Fc is 396 ng/µL, the Enzyme Activity Endpoint Assay: IgG amounted to 0 ng/µL and the Enzyme Activity Endpoint Assay: scIgG came to 0 ng/µL.
As for B10, the Enzyme Activity Endpoint Assay: Fab′2 was found to be 0 ng/µL, the Enzyme Activity Endpoint Assay: Fc worked out at 34 ng/µL, the Enzyme Activity Endpoint Assay: IgG was 671 ng/µL and the Enzyme Activity Endpoint Assay: scIgG is 0 ng/µL.
The protein B11 gave an Enzyme Activity Endpoint Assay: Fab′2 of 0 ng/µL, an Enzyme Activity Endpoint Assay: Fc of 5 ng/µL, an Enzyme Activity Endpoint Assay: IgG of 141 ng/µL and an Enzyme Activity Endpoint Assay: scIgG of 0 ng/µL.
Take B12: the Enzyme Activity Endpoint Assay: Fab′2 was 6 ng/µL, the Enzyme Activity Endpoint Assay: Fc was determined as 0 ng/µL, the Enzyme Activity Endpoint Assay: IgG is 1530 ng/µL and the Enzyme Activity Endpoint Assay: scIgG is 0 ng/µL.
B13 yielded an Enzyme Activity Endpoint Assay: Fab′2 of 0 ng/µL, an Enzyme Activity Endpoint Assay: Fc of 0 ng/µL, an Enzyme Activity Endpoint Assay: IgG of 1000 ng/µL and an Enzyme Activity Endpoint Assay: scIgG of 0 ng/µL.
